What all share (assay): cell-based or functional assay
Assay [1] addresses HIV-1 Env of pseudovirus CAAN.A2 (Acute), clade B (HIV-1).
The target of assay [2] is HIV-1 Env of pseudovirus APV_17, clade B (HIV-1).
Assay [3] concerns the target HIV-1 98CN006 envelope glycoprotein (Env) on pseudovirus (HIV-1).
The target of assay [4] is HIV-1 MGRM-F1-021 Env (pseudovirus) (HIV-1).
The target in assay [5] is HIV-1 MGRM-C-009 Env (HIV-1).
Assay [6] concerns the target HIV-1 MGRM-F1-006 Env (pseudovirus) (HIV-1).
Assay [7] has as its target HIV-1 APV-6 envelope protein (Env) on pseudovirus (HIV-1).
For assay [8], the target named is HIV-1 MGRM-A-011 envelope glycoprotein (Env) (HIV-1).
Assay [9] concerns the target HIV-1 Env of isolate MGRM-G-017 (clade G pseudovirus) (HIV-1).
The target of assay [10] is HIV-1 MGRM-C-015 Env (HIV-1).
Assay [11] addresses HIV-1 Env of isolate MGRM-D-028 (clade D) (HIV-1).
Assay [12] addresses HIV-1 Env of isolate MGRM-D-016 (clade D) (HIV-1).
Assay [13] concerns the target HIV-1 MGRM-C-024 Env (HIV-1).
Assay [14] has as its target HIV-1 IAVI-C3 envelope protein (Env) on pseudovirus (HIV-1).
The target in assay [15] is HIV-1 MGRM-C-005 Env (HIV-1).
Assay [16] addresses HIV-1 Env of isolate MGRM-D-022 (clade D) (HIV-1).
Assay [17] has as its target HIV-1 Env of isolate MGRM-G-015 (clade G pseudovirus) (HIV-1).
Assay [18] deals with HIV-1 MGRM-A-004 envelope glycoprotein (Env) (HIV-1).
The target in assay [19] is HIV-1 APV-13 envelope protein (Env) on pseudovirus (HIV-1).
Assay [20] addresses HIV-1 MGRM-C-004 Env (HIV-1).
Assay [21] concerns the target HIV-1 Env of isolate MGRM-AG-001 (CRF_AG), on pseudovirus (HIV-1).
In assay [22] the target is HIV-1 Env of isolate 98CN009 (HIV-1).
Assay [23] has as its target HIV-1 Env of isolate MGRM-C-007 (HIV-1).
Assay [24] deals with HIV-1 JR-CSF Env R476A (HIV-1 (isolate JR-CSF)) (UniProt P20871).
For assay [25], the target named is HIV-1 Env of isolate 93UG077 (HIV-1).
Assay [26] deals with HIV-1 Env of isolate 98CN006 (HIV-1).
The target in assay [27] is HIV-1 Env of isolate MGRM-C-026 (HIV-1).
Assay [28] deals with HIV-1 JR-CSF Env I165A (HIV-1 (isolate JR-CSF)) (UniProt P20871).
Assay [29] has as its target HIV-1 JR-CSF Env N197A (HIV-1 (isolate JR-CSF)) (UniProt P20871).
The target of assay [30] is HIV-1 JR-CSF Env D185A (HIV-1 (isolate JR-CSF)) (UniProt P20871).
Assay [31] deals with HIV-1 Env of isolate NL43 (HIV-1).
The target in assay [32] is HIV-1 Env of isolate MGRM-A-007 (clade A), on pseudovirus (HIV-1).
For assay [33], the target named is HIV-1 Env of isolate MGRM-F1-020 (subtype F), on pseudovirus (HIV-1).
Assay [34] deals with HIV-1 MGRM-A-010 envelope glycoprotein (Env) on pseudovirus (HIV-1).

A value given as a limit tells only on which side of the number the result lay.

For orientation: IC50 means the concentration at which inhibition is half-maximal. Lower therefore signals higher potency. In the case of 2F5 (antibody), the IC50 (µg/ml), pseudovirus neutralization is 23.1 µg/mL in assay [1]; 4.61 µg/mL in assay [2]; above 50 µg/mL in [3]; 1.37 µg/mL in [4]; 1.1 µg/mL in assay [6]; above 50 µg/mL in assay [8]. Moreover, the IC50 (µg/ml), pseudovirus neutralization in assay [9] was 0.6 µg/mL; in assay [11] it was above 50 µg/mL; in [12], 9.85 µg/mL; in [16], 8.45 µg/mL; in assay [17], 0.43 µg/mL; in assay [18], 7.49 µg/mL. Moreover, the IC50 in assay [5], in assay [10], in [13], in [15] and in assay [20] was above 50 mg/L in each case. Also, the neutralization IC50 in assay [7] was 0.1 mg/L; in [14], above 50 mg/L; in assay [19] it was 2.8 mg/L.
On to 2G12 (antibody), for which the IC50 (µg/ml), pseudovirus neutralization in assay [1] is above 50 µg/mL; in assay [2] it was above 50 µg/mL; in [3] it was above 50 µg/mL; in [4], 14.1 µg/mL; in assay [6] it was above 50 µg/mL; in assay [8], above 50 µg/mL. The IC50 (µg/ml), pseudovirus neutralization in assay [9], in assay [11], in assay [12], in [16], in [17] and in assay [18] was above 50 µg/mL throughout. Besides, the IC50 in assay [5] was above 50 mg/L; in [10] it was 1.75 mg/L; in [13], above 50 mg/L; in [15], above 50 mg/L; in assay [20], above 50 mg/L. Besides, the neutralization IC50 in assay [7] is 5.3 mg/L; in [14], above 50 mg/L; in assay [19] it was 23.9 mg/L.
Turning to 4E10 (antibody), the IC50 (µg/ml), pseudovirus neutralization is 17.9 µg/mL in assay [1]; 10.5 µg/mL in assay [2]; 1.91 µg/mL in assay [3]; 1.87 µg/mL in [4]; 1.01 µg/mL in [6]; 2.88 µg/mL in assay [8]. Besides, the IC50 (µg/ml), pseudovirus neutralization is 1.14 µg/mL in [9]; 1.28 µg/mL in [11]; 15.4 µg/mL in assay [12]; 16.9 µg/mL in assay [16]; 1.07 µg/mL in [17]; 3.14 µg/mL in assay [18]. Moreover, the IC50 in assay [5] came out at 0.56 mg/L; in [10], 2.52 mg/L; in [13] it was 22.6 mg/L; in [15], 16.4 mg/L; in assay [20], 24.2 mg/L. For the same substance, the results for the neutralization IC50 in assay [7], in [14] and in assay [19] were 0.4 mg/L, 5 mg/L and 3.8 mg/L, respectively.
Regarding 5114_A19 (PGT-128) (antibody), the IC50, single-round pseudovirus neutralization in assay [21] is 4.73 mg/L; in assay [32], above 50 mg/L. The half-maximal inhibitory concentration (IC50) was 0.025 mg/L in assay [22]; 0.111 mg/L in assay [23]; 0.015 mg/L in assay [26]; 0.007 mg/L in [27]; above 50 mg/L in assay [31]. Moreover, the Fold IC50 increase relative to wild-type came out at 0.7 fold in [24], 2.1 fold in assay [28], 1 fold in [29] and 1.5 fold in assay [30]. The neutralization IC50 in assay [25] was 0.014 mg/L. In assay [33], this substance yielded an IC50, pseudovirus neutralization of 0.355 mg/L.
For the substance 5136_H01 (PGT-131) (antibody), the IC50, single-round pseudovirus neutralization in [21] and in [32] was above 50 mg/L throughout. In addition, the IC50 in assay [22] is 4.05 mg/L; in [23], above 50 mg/L; in assay [26], 35.3 mg/L; in assay [27] it was 1.67 mg/L; in [31], above 50 mg/L. The Fold IC50 increase relative to wild-type was 1 fold in assay [24], 2.4 fold in [28], 1.1 fold in [29] and 0.7 fold in [30]. Moreover, the neutralization IC50 in assay [25] was above 50 mg/L. The substance further displayed an IC50, pseudovirus neutralization in assay [33] above 50 mg/L.
In the case of 5147_N06 (PGT-130) (antibody), the IC50, single-round pseudovirus neutralization in assay [21] and in [32] was above 50 mg/L in each case. The IC50 in assay [22] is 0.136 mg/L; in [23], above 50 mg/L; in assay [26], 0.258 mg/L; in assay [27] it was 0.036 mg/L; in [31], above 50 mg/L. Also, the Fold IC50 increase relative to wild-type was 1.3 fold in [24], 3.2 fold in [28], 1.2 fold in assay [29] and 0.9 fold in assay [30]. In addition, the neutralization IC50 in assay [25] amounted to 21.4 mg/L. The IC50 (ug/ml), neutralizing activity in [34] was 0.0054 µg/mL. Besides, the IC50, pseudovirus neutralization in assay [33] was 9.73 mg/L.
As to 5329_C19 (PGT-136) (antibody), the IC50, single-round pseudovirus neutralization in assay [21] and in assay [32] was above 50 mg/L in each case. Besides, the IC50 in assay [22] is 0.428 mg/L; in [23], above 50 mg/L; in assay [26] it was 0.406 mg/L; in assay [27], 0.006 mg/L; in [31] it was 27.7 mg/L. The substance further came in with a neutralization IC50 in [25] above 50 mg/L. The IC50, pseudovirus neutralization in assay [33] turned out to be 9.31 mg/L.
For the substance 5343_B08 (PGT-135) (antibody), the IC50, single-round pseudovirus neutralization in assay [21] and in assay [32] was above 50 mg/L throughout. Further, the IC50 in [22] is 0.071 mg/L; in assay [23] it was above 50 mg/L; in [26], 0.429 mg/L; in assay [27] it was 0.004 mg/L; in [31], 8.03 mg/L. The Fold IC50 increase relative to wild-type in assay [24] came to 0.8 fold; in assay [28], 4 fold; in assay [29], 0.3 fold; in [30] it was 1.3 fold. The same substance registered a neutralization IC50 in assay [25] above 50 mg/L. Moreover, the IC50, pseudovirus neutralization in assay [33] worked out at 0.168 mg/L.
As to 5345_I01 (PGT-137) (antibody), the IC50, single-round pseudovirus neutralization in assay [21] and in assay [32] was above 50 mg/L in each case. Also, the IC50 in assay [22] is 5.06 mg/L; in [23], above 50 mg/L; in assay [26] it was 1.22 mg/L; in [27], 0.011 mg/L; in [31], 17.4 mg/L. Further, the neutralization IC50 in assay [25] was above 50 mg/L. The substance also returned an IC50, pseudovirus neutralization in assay [33] of 1.93 mg/L.

(Values after US20200024330A1.)
